Assay [1] concerns the target T1, HIV‐1 envelope glycoprotein gp120, strain HxBc2 (HIV-1 strain HxBc2, UniProt P04578 33-511). The experiment in a line: cell-based or functional assay.
Assay [2] deals with T1, HIV‐1 envelope glycoprotein gp120, …. The experiment in a line: ELISA; gp120 HxBc2 coated (1.4 μg/mL, 0.1 M phosphate buffer pH 7.4, overnight 4°C), blocked with Ficoll 400; biotinylated peptide in serial threefold dilutions from 400 nM, overnight 4°C; detected with anti-biotin peroxidase. As to conditions: both partners purified. On the technique in general: ELISA stands for enzyme-linked immunosorbent assay.

Non-standard residues stand in square brackets, D forms with d. *: point of attachment. Biotin = O=C1N[C@H]2[C@H](CS[C@H]2CCCCC(=O)*)N1; Ahx = NCCCCCC(=O)O; βAla = NCCC(=O)O

B1: H1H3s (peptide)
chain: Ac-GYRFSNFVIHWG[βAla]G[Ahx]GK(Biotin)G[Ahx]SVGPYSWDDSPQDNYMDS-NH2
modifications: not fully specified; printed as Ac‐GYRFSNFVIHW‐GBGXG‐K*‐GX‐SVGPYSWDDSPQDNYMDS‐NH_2_
In general, EC50 refers to the concentration at which the effect is half-maximal. Consider B1, for which the “neutralisation of HIV-1 NL4-3 infection, SEAP reporter CEMx174 cells, IC50” value in assay [1] came to 6300 nM. Further, the 50% effective concentration (EC50) in assay [2] worked out at 6.46 ± 1.5 nM.

B2: H1H3s‐R28K (peptide)
chain: Ac-GYKFSNFVIHWG[βAla]G[Ahx]GK(Biotin)G[Ahx]SVGPYSWDDSPQDNYMDS-NH2
modifications: not fully specified; printed as Ac‐GYKFSNFVIHW‐GBGXG‐K*‐GX‐SVGPYSWDDSPQDNYMDS‐NH_2_
B2: in assay [2], the EC50 was found to be 7.86 ± 1.35 nM.

B3: H1H3s‐allD (peptide)
chain: Ac-G[dY][dR][dF][dS][dN][dF][dV][dI][dH][dW]G[βAla]G[Ahx]G[dK](Biotin)G[Ahx][dS][dV]G[dP][dY][dS][dW][dD][dD][dS][dP][dQ][dD][dN][dY][dM][dD][dS]-NH2
SMILES: CC[C@@H](C)[C@@H](NC(=O)[C@H](NC(=O)[C@@H](Cc1ccccc1)NC(=O)[C@@H](CC(N)=O)NC(=O)[C@@H](CO)NC(=O)[C@@H](Cc1ccccc1)NC(=O)[C@@H](CCCNC(=N)N)NC(=O)[C@@H](Cc1ccc(O)cc1)NC(=O)CNC(C)=O)C(C)C)C(=O)N[C@H](Cc1c[nH]cn1)C(=O)N[C@H](Cc1c[nH]c2ccccc12)C(=O)NCC(=O)NCCC(=O)NCC(=O)NCCCCCC(=O)NCC(=O)N[C@H](CCCCNC(=O)CCCC[C@@H]1SC[C@@H]2NC(=O)N[C@@H]21)C(=O)NCC(=O)NCCCCCC(=O)N[C@H](CO)C(=O)N[C@@H](C(=O)NCC(=O)N1CCC[C@@H]1C(=O)N[C@H](Cc1ccc(O)cc1)C(=O)N[C@H](CO)C(=O)N[C@H](Cc1c[nH]c2ccccc12)C(=O)N[C@H](CC(=O)O)C(=O)N[C@H](CC(=O)O)C(=O)N[C@H](CO)C(=O)N1CCC[C@@H]1C(=O)N[C@H](CCC(N)=O)C(=O)N[C@H](CC(=O)O)C(=O)N[C@H](CC(N)=O)C(=O)N[C@H](Cc1ccc(O)cc1)C(=O)N[C@H](CCSC)C(=O)N[C@H](CC(=O)O)C(=O)N[C@H](CO)C(N)=O)C(C)C
Turning to B3, in assay [1], the “neutralisation of HIV-1 NL4-3 infection, SEAP reporter CEMx174 cells, IC50” value was 1900 nM.

The values above are taken from publication PMC11833279, “Versatile Features of an Antibody Mimetic Peptide and Its Variants” (Journal of Peptide Science, 2025).
